This series concerns the molecule itself. The experiment in a line: X-ray crystallography, BAR/acetyl-CoA and BAR/CoA/phosphinothricin complexes. The method, then:
BAR protein was incubated with 1 mM acetyl-CoA for >2 hour prior to setting crystal trays. Crystals of BAR were obtained after 3 days at 20° C. in hanging drops containing 1 μL of protein solution (7.5 mg/ml) and 1 μL of reservoir solution (0.18 M calcium acetate, 0.1 M Tris-HCl pH 7, 18% (w/v) PEG 3000, 0.2% N-nonyl β-D-glucopyranoside, 1 mM acetyl-CoA). Several crystals were soaked in reservoir solution supplemented with 30 mM L-phosphinothricin for 30-60 min before freezing. Crystals were frozen in reservoir solution supplemented with 15% ethylene glycol. […] Co-crystallization screens and soaking experiments were performed using aminoadipate and tryptophan at final concentrations between 5-30 mM. However, we could not identify electron density supporting the presence of these substrates within the resolved crystal structures.
X-ray diffraction data were collected on the 24-ID-C beam line of the Structural Biology Center at the Advanced Photon Source (Argonne National Laboratory) equipped with a Pixel Array Detector (Pilatus-6MF). […] Initial phases were determined by molecular replacement using Phaser under Phenix (Adams, P. D. et al., Acta Crystallographica. Section D, Biological Crystallo. 66, 213-221, (2010)). […]

B1: Wildtype bialaphos resistance (BAR) protein from Streptomyces hygroscopicus (enzyme)
chain: MSPERRPADIRRATEADMPAVCTIVNHYIETSTVNFRTEPQEPQEWTDDLVRLRERYPWLVAEVDGEVAGIAYAGPWKARNAYDWTAESTVYVSPRHQRTGLGSTLYTHLLKSLEAQGFKSVVAVIGLPNDPSVRMHEALGYAPRGMLRAAGFKHGNWHDVGFWQLDFSLPVPPRPVLPVTEI
notes: the entries describe its self-association into a homodimer in the crystal; Expressed in E. coli from pProEX Hta as 6xHis-BAR; Crystallised with acetyl-CoA, or with CoA and phosphinothricin; also called WT BAR; wild-type BAR
For B1, the binding result is “binds”.

These data come from patent publication US20190249188A1 (WHITEHEAD INSTITUTE FOR BIOMEDICAL RESEARCH, published 2019).
